Source: US11325966

What was measured:
Experiment in all cases: cell-based or functional assay
[1] = target: HIV-1 Env of pseudovirus X1254_c3 (HIV-1)
[2] = target: HIV-1 Env of pseudovirus Ce704809221_1B3 (HIV-1)
[3] = target: HIV-1 Env of pseudovirus CNE30 (HIV-1)
[4] = target: HIV-1 Env of pseudovirus 6545.v4.c1 (HIV-1)
[5] = target: HIV-1 Env of pseudovirus 6535.3 (HIV-1)
[6] = target: HIV-1 Env of pseudovirus HIV-16055-2.3 (HIV-1)
[7] = target: HIV-1 Env of pseudovirus TRJO4551.58 (HIV-1)
[8] = target: HIV-1 Env of pseudovirus RHPA4259.7 (HIV-1)
[9] = target: HIV-1 Env of pseudovirus C2101.c01 (HIV-1)
[10] = target: HIV-1 Env of pseudovirus ZM249M.PL1 (HIV-1)
[11] = target: HIV-1 Env of pseudovirus ZM53M.PB12 (HIV-1)
[12] = target: HIV-1 Env of pseudovirus 89-F1_2_25 (HIV-1)
[13] = target: HIV-1 Env of pseudovirus Ce1176_A3 (HIV-1)
[14] = target: HIV-1 Env of pseudovirus CNE20 (HIV-1)
[15] = target: HIV-1 Env of pseudovirus T278-50 (HIV-1)
[16] = target: HIV-1 Env of pseudovirus T251-18 (HIV-1)
[17] = target: HIV-1 Env of pseudovirus 235-47 (HIV-1)
[18] = target: HIV-1 Env of pseudovirus CNE53 (HIV-1)
[19] = target: HIV-1 Env of pseudovirus Q461.e2 (HIV-1)
[20] = target: HIV-1 Env of pseudovirus 1006_11_C3_1601 (HIV-1)
[21] = target: HIV-1 Env of pseudovirus 1054_07_TC4_1499 (HIV-1)
[22] = target: HIV-1 Env of pseudovirus MS208.A1 (HIV-1)
[23] = target: HIV-1 Env of pseudovirus Ce1086_B2 (HIV-1)
[24] = target: HIV-1 Env of pseudovirus 62357_14_D3_4589 (HIV-1)
[25] = target: HIV-1 Env of pseudovirus Ce2010_F5 (HIV-1)
[26] = target: HIV-1 Env of pseudovirus C1080.c03 (HIV-1)
[27] = target: HIV-1 Env of pseudovirus AC10.0.29 (HIV-1)
[28] = target: HIV-1 Env of pseudovirus 6244_13_B5_4576 (HIV-1)
[29] = target: HIV-1 Env of pseudovirus Ce1172_H1 (HIV-1)
[30] = target: HIV-1 Env of pseudovirus 191955_A11 (HIV-1)
[31] = target: HIV-1 Env of pseudovirus C4118.c09 (HIV-1)
[32] = target: HIV-1 Env of pseudovirus SC422661.8 (HIV-1)
[33] = target: HIV-1 Env of pseudovirus WITO4160.33 (HIV-1)
[34] = target: HIV-1 Env of pseudovirus ZM233M.PB6 (HIV-1)
[35] = target: HIV-1 Env of pseudovirus 3817.v2.c59 (HIV-1)
[36] = target: HIV-1 Env of pseudovirus QH0692.42 (HIV-1)
[37] = target: HIV-1 Env of pseudovirus 231966.c02 (HIV-1)
[38] = target: HIV-1 Env of pseudovirus 3016.v5.c45 (HIV-1)
[39] = target: HIV-1 Env of pseudovirus P1981_C5_3 (HIV-1)
[40] = target: HIV-1 Env of pseudovirus WEAU_d15_410_787 (HIV-1)

Substance: BG18 IgG (354BG18) (antibody)
- IC50 in TZM-bl assay [1]: 0.004 µg/mL
- IC80 in TZM-bl assay [1]: 0.012 µg/mL
- IC50 in TZM-bl assay [2]: 4.39 µg/mL
- IC80 in TZM-bl assay [2]: > 30 µg/mL
- IC50 in TZM-bl assay [3]: 0.019 µg/mL
- IC80 in TZM-bl assay [3]: 0.059 µg/mL
- IC50 in TZM-bl assay [4]: > 30 µg/mL
- IC80 in TZM-bl assay [4]: > 30 µg/mL
- IC80 in TZM-bl assay [5]: 0.005 µg/mL
- IC50 in TZM-bl assay [6]: > 30 µg/mL
- IC80 in TZM-bl assay [6]: > 30 µg/mL
- IC50 in TZM-bl assay [7]: 3.34 µg/mL
- IC80 in TZM-bl assay [7]: 26.9 µg/mL
- IC50 in TZM-bl assay [8]: 1.44 µg/mL
- IC80 in TZM-bl assay [8]: > 30 µg/mL
- IC50 in TZM-bl assay [9]: > 30 µg/mL
- IC80 in TZM-bl assay [9]: > 30 µg/mL
- IC50 in TZM-bl assay [10]: > 30 µg/mL
- IC80 in TZM-bl assay [10]: > 30 µg/mL
- IC50 in TZM-bl assay [11]: > 30 µg/mL
- IC80 in TZM-bl assay [11]: > 30 µg/mL
- IC50 in TZM-bl assay [12]: > 30 µg/mL
- IC80 in TZM-bl assay [12]: > 30 µg/mL
- IC50 in TZM-bl assay [13]: 0.004 µg/mL
- IC80 in TZM-bl assay [13]: 0.012 µg/mL
- IC50 in TZM-bl assay [14]: 0.002 µg/mL
- IC80 in TZM-bl assay [14]: 0.006 µg/mL
- IC50 in TZM-bl assay [15]: 2.95 µg/mL
- IC80 in TZM-bl assay [15]: 12.9 µg/mL
- IC50 in TZM-bl assay [16]: 0.086 µg/mL
- IC80 in TZM-bl assay [16]: 0.328 µg/mL
- IC50 in TZM-bl assay [17]: 0.005 µg/mL
- IC80 in TZM-bl assay [17]: 0.017 µg/mL
- IC50 in TZM-bl assay [18]: 0.003 µg/mL
- IC80 in TZM-bl assay [18]: 0.011 µg/mL
- IC50 in TZM-bl assay [19]: > 30 µg/mL
- IC80 in TZM-bl assay [19]: > 30 µg/mL
- IC80 in TZM-bl assay [20]: 0.004 µg/mL
- IC50 in TZM-bl assay [21]: 0.005 µg/mL
- IC80 in TZM-bl assay [21]: 0.022 µg/mL
- IC50 in TZM-bl assay [22]: > 30 µg/mL
- IC80 in TZM-bl assay [22]: > 30 µg/mL
- IC50 in TZM-bl assay [23]: > 30 µg/mL
- IC80 in TZM-bl assay [23]: > 30 µg/mL
- IC50 in TZM-bl assay [24]: 3.01 µg/mL
- IC80 in TZM-bl assay [24]: > 30 µg/mL
- IC50 in TZM-bl assay [25]: > 30 µg/mL
- IC80 in TZM-bl assay [25]: > 30 µg/mL
- IC50 in TZM-bl assay [26]: 5.37 µg/mL
- IC80 in TZM-bl assay [26]: > 30 µg/mL
- IC80 in TZM-bl assay [27]: 0.003 µg/mL
- IC50 in TZM-bl assay [28]: 0.011 µg/mL
- IC80 in TZM-bl assay [28]: 0.049 µg/mL
- IC50 in TZM-bl assay [29]: 0.002 µg/mL
- IC80 in TZM-bl assay [29]: 0.007 µg/mL
- IC50 in TZM-bl assay [30]: > 30 µg/mL
- IC80 in TZM-bl assay [30]: > 30 µg/mL
- IC50 in TZM-bl assay [31]: > 30 µg/mL
- IC80 in TZM-bl assay [31]: > 30 µg/mL
- IC50 in TZM-bl assay [32]: 0.005 µg/mL
- IC80 in TZM-bl assay [32]: 0.021 µg/mL
- IC50 in TZM-bl assay [33]: 0.018 µg/mL
- IC80 in TZM-bl assay [33]: 0.25 µg/mL
- IC50 in TZM-bl assay [34]: 2.87 µg/mL
- IC80 in TZM-bl assay [34]: 29.8 µg/mL
- IC50 in TZM-bl assay [35]: 0.219 µg/mL
- IC80 in TZM-bl assay [35]: 1.06 µg/mL
- IC50 in TZM-bl assay [36]: 0.013 µg/mL
- IC80 in TZM-bl assay [36]: 0.042 µg/mL
- IC50 in TZM-bl assay [37]: > 30 µg/mL
- IC80 in TZM-bl assay [37]: > 30 µg/mL
- IC50 in TZM-bl assay [38]: > 30 µg/mL
- IC80 in TZM-bl assay [38]: > 30 µg/mL
- IC50 in TZM-bl assay [39]: 0.006 µg/mL
- IC80 in TZM-bl assay [39]: 0.019 µg/mL
- IC50 in TZM-bl assay [40]: 0.003 µg/mL
- IC80 in TZM-bl assay [40]: 0.012 µg/mL

Substance: PGT121 (antibody)
- IC80 in TZM-bl assay [1]: 0.085 µg/mL
- IC50 in TZM-bl assay [2]: 0.043 µg/mL
- IC80 in TZM-bl assay [2]: 0.285 µg/mL
- IC50 in TZM-bl assay [3]: 0.088 µg/mL
- IC80 in TZM-bl assay [3]: 0.288 µg/mL
- IC50 in TZM-bl assay [4]: > 10 µg/mL
- IC80 in TZM-bl assay [4]: > 10 µg/mL
- IC50 in TZM-bl assay [5]: 0.003 µg/mL
- IC80 in TZM-bl assay [5]: 0.01 µg/mL
- IC50 in TZM-bl assay [6]: 0.772 µg/mL
- IC80 in TZM-bl assay [6]: 7.99 µg/mL
- IC50 in TZM-bl assay [7]: 0.802 µg/mL
- IC80 in TZM-bl assay [7]: > 10 µg/mL
- IC50 in TZM-bl assay [8]: 0.013 µg/mL
- IC80 in TZM-bl assay [8]: 0.046 µg/mL
- IC50 in TZM-bl assay [9]: > 10 µg/mL
- IC80 in TZM-bl assay [9]: > 10 µg/mL
- IC50 in TZM-bl assay [10]: > 10 µg/mL
- IC80 in TZM-bl assay [10]: > 10 µg/mL
- IC50 in TZM-bl assay [11]: 0.001 µg/mL
- IC80 in TZM-bl assay [11]: 0.005 µg/mL
- IC50 in TZM-bl assay [12]: > 10 µg/mL
- IC80 in TZM-bl assay [12]: > 10 µg/mL
- IC80 in TZM-bl assay [13]: 0.063 µg/mL
- IC50 in TZM-bl assay [14]: 0.003 µg/mL
- IC80 in TZM-bl assay [14]: 0.006 µg/mL
- IC50 in TZM-bl assay [15]: > 10 µg/mL
- IC80 in TZM-bl assay [15]: > 10 µg/mL
- IC50 in TZM-bl assay [16]: 5.18 µg/mL
- IC80 in TZM-bl assay [16]: > 10 µg/mL
- IC50 in TZM-bl assay [17]: 0.259 µg/mL
- IC80 in TZM-bl assay [17]: 1.6 µg/mL
- IC50 in TZM-bl assay [18]: 0.014 µg/mL
- IC80 in TZM-bl assay [18]: 0.062 µg/mL
- IC50 in TZM-bl assay [19]: > 10 µg/mL
- IC80 in TZM-bl assay [19]: > 10 µg/mL
- IC50 in TZM-bl assay [20]: 0.002 µg/mL
- IC80 in TZM-bl assay [20]: 0.008 µg/mL
- IC50 in TZM-bl assay [21]: 0.041 µg/mL
- IC80 in TZM-bl assay [21]: 0.299 µg/mL
- IC50 in TZM-bl assay [22]: > 10 µg/mL
- IC80 in TZM-bl assay [22]: > 10 µg/mL
- IC50 in TZM-bl assay [23]: 0.003 µg/mL
- IC50 in TZM-bl assay [24]: 6.21 µg/mL
- IC80 in TZM-bl assay [24]: > 10 µg/mL
- IC50 in TZM-bl assay [25]: > 10 µg/mL
- IC80 in TZM-bl assay [25]: > 10 µg/mL
- IC50 in TZM-bl assay [26]: > 10 µg/mL
- IC80 in TZM-bl assay [26]: > 10 µg/mL
- IC50 in TZM-bl assay [27]: 0.019 µg/mL
- IC80 in TZM-bl assay [27]: 0.06 µg/mL
- IC50 in TZM-bl assay [28]: 0.172 µg/mL
- IC80 in TZM-bl assay [28]: 1.47 µg/mL
- IC50 in TZM-bl assay [29]: 0.007 µg/mL
- IC80 in TZM-bl assay [29]: 0.03 µg/mL
- IC50 in TZM-bl assay [30]: > 10 µg/mL
- IC80 in TZM-bl assay [30]: > 10 µg/mL
- IC50 in TZM-bl assay [31]: > 10 µg/mL
- IC80 in TZM-bl assay [31]: > 10 µg/mL
- IC50 in TZM-bl assay [32]: 0.079 µg/mL
- IC80 in TZM-bl assay [32]: 0.373 µg/mL
- IC50 in TZM-bl assay [33]: 0.301 µg/mL
- IC80 in TZM-bl assay [33]: 3.2 µg/mL
- IC50 in TZM-bl assay [34]: 2.81 µg/mL
- IC80 in TZM-bl assay [34]: > 10 µg/mL
- IC50 in TZM-bl assay [35]: > 10 µg/mL
- IC80 in TZM-bl assay [35]: > 10 µg/mL
- IC50 in TZM-bl assay [36]: 0.498 µg/mL
- IC80 in TZM-bl assay [36]: 8.51 µg/mL
- IC50 in TZM-bl assay [37]: > 10 µg/mL
- IC80 in TZM-bl assay [37]: > 10 µg/mL
- IC50 in TZM-bl assay [38]: > 10 µg/mL
- IC80 in TZM-bl assay [38]: > 10 µg/mL
- IC50 in TZM-bl assay [39]: 0.002 µg/mL
- IC80 in TZM-bl assay [39]: 0.009 µg/mL
- IC50 in TZM-bl assay [40]: 0.017 µg/mL
- IC80 in TZM-bl assay [40]: 0.062 µg/mL
